Reference: paper PMC10160951 (Proceedings of the National Academy of Sciences of the …, 2023)
Values belong to the molecule of their own block, whether it stands above or below them.

Legend:
[1] = molecular target: full-length SNAP-tagged NKG2D on HEK293 TRex cells (co-expressed with DAP10) (human) (UniProt P26718); test: FRET or BRET
[2] = molecular target: T1, MICA ECD (24 to 297), not dye-labeled (human, UniProt Q29983 24-297); test: SPR
T1 sequence: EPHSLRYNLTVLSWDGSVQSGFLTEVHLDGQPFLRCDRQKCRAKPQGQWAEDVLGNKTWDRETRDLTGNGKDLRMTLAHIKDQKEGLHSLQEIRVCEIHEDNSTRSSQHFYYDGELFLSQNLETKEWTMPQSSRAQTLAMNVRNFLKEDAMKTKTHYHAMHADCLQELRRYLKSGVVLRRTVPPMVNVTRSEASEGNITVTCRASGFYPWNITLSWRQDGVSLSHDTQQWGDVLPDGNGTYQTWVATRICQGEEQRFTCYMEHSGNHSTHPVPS

[3] = molecular target: T1, MICA ECD (24 to 297), not dye-labeled; test: SEC-MALS
[4] = molecular target: T2, Alexa Fluor 647-labeled MICB ECD (24 to 297) (human, UniProt Q29980 24-297, AF647 label on Cys213); test: FRET or BRET
T2 sequence: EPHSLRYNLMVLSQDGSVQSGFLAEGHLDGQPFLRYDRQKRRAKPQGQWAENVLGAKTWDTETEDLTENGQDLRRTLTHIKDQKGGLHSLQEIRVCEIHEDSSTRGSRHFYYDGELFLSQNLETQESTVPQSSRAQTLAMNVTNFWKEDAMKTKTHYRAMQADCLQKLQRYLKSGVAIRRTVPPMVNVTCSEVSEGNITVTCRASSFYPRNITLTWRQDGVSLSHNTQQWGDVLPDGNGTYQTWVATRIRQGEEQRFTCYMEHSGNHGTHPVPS

Molecule: Alexa Fluor 647-labeled ULBP6 ECD (29 to 207) (from UniProt Q5VY80 29-207) (ligand)
Kd [1]: 2.5 nM

B2: hNKG2D 90-216, S117E, I173S mutant (domain or fragment)
chain: MGPLTESYCGPCPKNWICYKNNCYQFFDEEKNWYESQASCMSQNASLLKVYSKEDQDLLKLVKSYHWMGLVHIPTNGSWQWEDGSSLSPNLLTIIEMQKGDCALYASSFKGYIENCSTPNTYICMQRTV
binding result [3]: binds

Results, then the molecule that gave them:

Kd [2]: 48 nM
B1: biotinylated and detagged NKG2D ECD (90 to 216) (domain or fragment)
chain: PLTESYCGPCPKNWICYKNNCYQFFDESKNWYESQASCMSQNASLLKVYSKEDQDLLKLVKSYHWMGLVHIPTNGSWQWEDGSILSPNLLTIIEMQKGDCALYASSFKGYIENCSTPNTYICMQRTV
modifications: biotin on the Avi tag

Kd [4]: 700 nM
B3: full-length SNAP-tagged NKG2D on HEK293 TRex cells (co-expressed with DAP10) (receptor)
chain: MGWIRGRRSRHSWEMSEFHNYNLDLKKSDFSTRWQKQRCPVVKSKCRENASPFFFCCFIAVAMGIRFIIMVTIWSAVFLNSLFNQEVQIPLTESYCGPCPKNWICYKNNCYQFFDESKNWYESQASCMSQNASLLKVYSKEDQDLLKLVKSYHWMGLVHIPTNGSWQWEDGSILSPNLLTIIEMQKGDCALYASSFKGYIENCSTPNTYICMQRTV
modifications: terbium label on the SNAP-tag
